The record followed here is US20120207673A1.

Assay [1] deals with protein A (UniProt P38507). Put plainly: phage ELISA on coated protein A; heat/cool assay, % of untreated sample. In general terms: An ELISA detects its analyte on a solid surface through an enzyme-linked reagent.
Assay [2] addresses protein A (UniProt P38507). The assay can be described thus: phage ELISA on coated protein A; heat/cool assay, % of untreated sample (n = 2).

Consider DP47 VH S35D + YA_32/33_DD, for which the Retained binding to protein A (%) with protein A [1] came to 70.4%.

Consider DP47 VH T28D + SYA_31-33_DDD, for which, in the assay with protein A [2], the Retained binding to protein A (%) turned out to be 74.9%.

In turn, DP47 VH T28D + SYA_31-33_DDD + S35D showed a Retained binding to protein A (%) in the assay with protein A [2] of 78.6%.

For the substance DP47 VH S35D + SYA_31-33_DDD, the Retained binding to protein A (%) in the assay with protein A [2] stood at 76.7%.

Consider DP47 VH T28D + YA_32/33_DD, for which the Retained binding to protein A (%) with protein A [2] amounted to 76.1%.
